In paper PMC8632923:

Legend:
Conditions in all cases: reference: wild type; sites Y38
[1] = molecular target: Drp1 (UniProt O00429); assay: co-IP, immunoblot
[2] = molecular target: Drp1 (UniProt O00429); assay: Flag-bead Fis1 pull-down of recombinant Drp1
[3] = molecular target: Drp1 (UniProt O00429); assay: anti-Flag IP of Fis1-Flag, Drp1 blot

binding against the reference [1]: weaker
binding against the reference [2]: weaker
binding against the reference [3]: weaker
Substance: Fis1 (from UniProt Q9Y3D6) Y38F
